Blank lines part the entries; values can stand above or below the molecule they belong to.
Experiments:
[1] = system: Hep3B hepatoma cells; assay: Hep3B xenograft animal model with GES1 IgG; assay type: in vivo, NOD-SCID mice; settings: 200 mg/Kg sorafenib orally
Description: GES1 scFv antibody was humanized to obtain humanized IgG antibody (GES1 humanized scFv antibody) and a xenograft animal model was conducted. Hep3B hepatoma cells were cloned to NOD-SCID mice. After the tumors were generated, 1 mg/Kg and 5 mg/Kg of GES1 IgG were i.v. injected into the mice once a week. Another group of the mice were orally administered with 200 mg/Kg sorafenic.

[2] = system: HepG2 and HuH-7 ectopic xenografts; settings: cited from earlier work
[3] = biological target: GPC3 in HepG2 cells (Homo sapiens, UniProt P51654); assay: Immunoprecipitation assay, HepG2 cell lysate; assay type: binding; set-up: endogenous in cells; host or cells: HepG2; settings: HepG2 total cell lysate; data very preliminary
Description: (§1) Antibody beads were prepared by covalently linking 100 ul of Ni-NTA Sepharose (Amersham Biosciences) and 1 mg of anti-GPC3 scFv antibodies with 20 mM dimethyl pimelimidate. Then, 500 ul of HepG2 and Hep3B cell lysates were be mixed with 25 ul of antibody beads and incubated for 2 hr at 4° C. After extensive washing with PBST, antibody beads will be resuspended in 50 ul of SDS-PAGE loading buffer, boiled for 5 min, and subsequently subjected to western blotting analysis. […] The total cell lysates of Hep3B and HepG2 were incubated with a mixture of his-beads and G5S1, GES1, GES6 or 70SC control scFv antibodies individually. After washing, the his-beads complex was subjected to SDS-PAGE and western blot analysis. […] By contrast, the protein in HepG2 cells was precipitated by GES1, G5S1 and GES6 scFv antibodies. However, the data were very preliminary and need further verification.

[4] = system: GPC3-positive HepG2 cells and Hep 3B cells; assay: Immunofluorescence staining binding analysis; assay type: cell-based, human; settings: Hep 3B cells (FIG. 9A) and Hep G2 cells (FIG. 9B)
Description: HepG2, Hep3B, cells (2×10^5 cells/ml) were seeded on cover glass and fixed by incubating with equal volume of 8% freshly prepared ice-cold paraformaldehyde on ice for 15 min. After fixing, the cells were dehydrated in a sequential treatment of 70%, 95% and 99% methanol and rehydrated with 95% and 70% methanol. The slides were then overlaid with blocking buffer (1% BSA in 1×PBS) at room temperature (RT) for 1 hr. Following washing with 1×PBS, specific monoclonal mouse or scFv antibodies were incubated with cells at RT for one additional hr. Finally, their binding to GPC3 protein was detected by mouse anti-HA antibodies, followed by FITC-conjugated goat anti-mouse antibodies. Nuclei were counterstained with PI solution in parallel. The slides were examined using a Confocal Spectral Microscope Imaging System (TCS SP5, Leica). […] The partially purified scFv antibodies were examined for their binding activity to GPC3-positive HepG2 cells and Hep 3B cells.

[5] = system: GPC3-positive Hep3B, HepG2 and HepJ5 cells; assay: Flow cytometry binding analysis; assay type: cell-based, human; settings: 100 μg/ml
Description: A total of 2×10^6 HepG2, Hep3B, cells were harvested and fixed with 2% paraformaldehyde as described previously with minor modification (Leu et al., 2010). The GPC3 molecule expressed in these […] cells were detected by adding purified chicken scFv antibodies, followed by mouse anti-HA (1:200) and FITC-conjugated goat anti-mouse antibodies (1:200). The results were analyzed using the FACScan flow cytometer Negative controls were performed by omitting the primary scFv antibodies, while positive controls were performed using commercial polyclonal anti-human GPC3 antibodies (1:200) instead of home-made chicken anti-GPC3 scFv antibodies. […] The partially purified scFv antibodies were examined for their binding activity to GPC3-positive Hep3B, HepG2 and HepJ5 cells.

[6] = system: HepG2 cells; assay: Proliferation (MTT) assay; assay type: cell-based, human
Description: A volume of 100 μl DMEM medium containing 5×10^3 HepG2, Hep3B, wherein cells were seeded onto 96-well plates. […] Thereafter, 10 μl of 3-[4,5-dimethylthiazol-2-yl]-2,5-diphenyltetrazolium bromide (MTT; 10 mg/ml) were added to determine the number of surviving cells. The supernatant was removed after 3 hr of incubation, and formazan crystals that had been developed were dissolved by adding of 100 μl acidified 2-propanol/well (0.04 N HCl). Extinction was measured by an automated microtiter plate reader at 540 nm. Unrelated anti-snake venom antibodies (neg) were included in control experiments. […] HepG2 cells were cultured in the medium containing G5S1, GES1, GES6 or control scFv antibodies at final concentrations of 0.1 μM for 1-6 days.

[7] = system: Hep3B xenograft; assay: Tumor xenograft model, Ki-67 immunohistochemistry of tumor tissue; assay type: in vivo, NOD-SCID mice; settings: 800 ug/mouse/per time i.v.; compared to untreated groups
Description: NOD-SCID mice were used. Briefly, 4-week-old female […] mice were injected subcutaneously with 4×10^6 of HepG2 and Hep3B cancer cells at a single dorsal site. At day 14, tumor-bearing mice were randomized into experimental groups (5 per group) and treated with anti-GPC3 antibodies and positive control with sorafenib accordingly. 400 ug or 800 ug of antibodies were given through intravenous (i.v.) injection every 3 days for 3 weeks. Tumor size was measured every 2 days with calipers until animals are sacrificed. At the time of sacrifice, tumors were dissected and weighted.
Tissue sections from xenograft tumor tissues in mice were de-waxed in xylene and rehydrated through graded alcohols. The antigen retrieval was carried out by heating the rehydrated tissues in 10 mM sodium citrate (pH 6.0) for 20 min. After washing with buffer containing 10 mM Tris-HCl (pH 7.4) and 150 mM sodium chloride, the sections were treated with 3% hydrogen peroxide for 5 min. Anti-Ki-67 antibodies (commercial polyclonal antibody) was be applied for 1 hr at room temperature. Optimal horseradish peroxidase-conjugated secondary antibodies and diaminobenzidine were added sequentially to detect the Ki-67 proliferation marker expression in the examined tissues. The slides were counterstained with GM hematoxylin solution. […]

[8] = biological target: T1, GPC3 (Homo sapiens, UniProt P51654); assay: ELISA binding to commercially available GPC3 immobilized on plate wells; set-up: analysis of commercial GPC3_extracellular domain (ECD) and truncated (C185) proteins; purchased; settings: partially purified scFv
Description: (§2) Nitrocellulose membranes were blocked with 5% skim milk in TBST for 1 hr. Polyclonal goat anti-chicken IgY light chain antibodies were added at 1:5000 dilution and incubated for an additional hr. The membranes were washed with TBST three times and the bound antibodies were detected by adding horseradish peroxidase (HRP)-conjugated donkey anti-goat Ig antibodies at 1:3000 dilutions. After three washings, the membranes were developed with diaminobenzidine (DAB) substrate until the desired intensity was reached. The IgY antibodies or the E. coli-expressed scFv antibodies were purified and incubated with the purified GPC3 protein or cellular lysates of GPC3-positive HepG2 and Hep3B cells immobilized on nitrocellulose membranes or ELISA plate wells. Their binding was subsequently detected by adding goat anti-mouse IgG or anti-chicken IgY light chain followed by HRP-conjugated donkey anti-goat Ig antibodies as described above.
HepG2, Hep3B, cells (2×10^5 cells/ml) was seeded on cover glass and fixed by incubating with equal volume of 8% freshly prepared ice-cold paraformaldehyde on ice for 15 min. After fixing, the cells were dehydrated in a sequential treatment of 70%, 95% and 99% methanol and rehydrated with 95% and 70% methanol. […] Finally, their binding to GPC3 protein was detected by mouse anti-HA antibodies, followed by FITC-conjugated goat anti-mouse antibodies. […]

[9] = biological target: T1, GPC3; assay: Western blot of GPC3 extracellular domain protein and hepatoma cell lysates; assay type: binding; set-up: purchased; settings: commercial GPC3 extracellular domain protein under reducing condition; lysates of hepatoma cell lines
Description: as §2

[10] = system: Hep3B cells; assay: Soft agar colony formation assay, Hep3B; assay type: cell-based, human; settings: 0.5 μM scFv, 4 weeks
Description: (§3) To determine the clonogenicity of HepG2, Hep3B, cells, 5×10^5 cells were pre-incubated in 2 ml DMEM medium containing anti-GPC3 antibodies at concentrations of 0.5-5 uM for 48 hr. Thereafter, cells were harvested, counted and transferred into semi-solid medium supplemented with 0.8% DMEM-methylcellulose and 30% FBS. Finally, 1 ml of the semi-solid medium containing 5×10^3 individual type of cell was plated onto 3.5 cm Petri-dishes. Triplicated Petri-dishes per treatment protocol will be cultivated for 5-7 days under standard conditions. Colony formation (clusters of >30 cells) will be visualized by staining with crystal violet and scored by an inverted microscope. […] The effect of GPC3 scFv on anchorage independent growth of HepG2 and Hep3B cells was explored. Hepatoma cells were treated with 0.5 μM of G5S1, GES1 or α-RTS6 (neg) scFv antibodies for 1 hr and suspended in medium containing 0.4% low melting agarose and plated onto solidified 0.9% agarose in medium at a density of 1×10^5 cells per dish. After incubating for 4 weeks, the number of colonies was counted and recorded. […] The exact reason for the distinct inhibition on 2 cell lines is presently not known.

[11] = system: HepG2 cells; assay: Soft agar colony formation assay, HepG2; assay type: cell-based, human; settings: 0.5 μM scFv, 4 weeks
Description: as §3

[12] = system: Hep3B cells; assay: Cell migration (wounded monolayer) assay; assay type: cell-based, human; settings: Hep3B monolayers wounded, 0.5 uM scFv, 24 hr
Description: For cell migration assays, 1×10^3 cells were incubated with anti-GPC3 antibodies at concentrations of 1 to 200 μg/ml for 48 hr before being transferred into a transwell migration system. The cells were plated onto a polycarbonate filter membrane with a pore size of 8 μm (upper layer) and incubated for different time interval at 37° C. in 5% CO2 incubator. Serum free medium containing 0.5 mM EDTA was used for washing off the cells from the lower part of the membrane to lower wells. The cells in the lower wells were collected with centrifugation at 3000 g for 5 min and perform direct cell counting under microscope. The mean growth rate (MGR) of cells after migration through the polycarbonate filter was determined by the equation: MGR=log 2 Nt−log2 N0/t, with N0 as initial cell number, Nt as final cell number and t as time period of cell incubation in days. […] To explore whether the GPC3 protein is essential for cell migration, Hep3B cells were cultured until confluence. The monolayers were wounded, cultured with medium containing 0.5 uM of G5 S1 or GES1 and two controls (NC-70sc or NC-spE) scFv antibodies and analyzed after 24, hr. […] The effect of G5S1 scFv was minimal and reached to the basal level obtained in medium without any scFv antibody.

[13] = system: HepG2 cells; assay: Cell cycle analysis (propidium iodide, FACS); assay type: cell-based, human
Description: Fixed cells were stained with propidium iodide and analyzed by FACS. The cell-cycle distribution of different phases was analyzed with FlowJo v 9.0. FIGS. 12 A, B and C show the results of cell cycle analysis. After treated with G5S1, GES1 or α-RTS6 (neg) scFv antibodies for 48 hrs, the adherent HepG2 cells were detached, washed, and exposed to 70% ethanol on 4° C. overnight. After washing, cells were incubated with […] propidium iodide and […] RNaseA. FACS was carried out and data were statistically analyzed by FlowJo software.

[14] = biological target: T2, GPC3 in Hep3B cells (Homo sapiens, UniProt P51654); assay: Immunoprecipitation assay, Hep3B cell lysate; assay type: binding; settings: Hep3B total cell lysate; data very preliminary
T2 construct: endogenous in cells; host or cells: Hep3B
Description: as §1

Molecule: CNC(=O)c1cc(Oc2ccc(NC(=O)Nc3ccc(Cl)c(C(F)(F)F)c3)cc2)ccn1 [sorafenib]
tumor growth inhibition [1]: 48.8%

Molecule: hGC33: Humanized GC33
efficacy against the HepG2 xenograft relative to GC33 [2]: as effective as GC33

precipitation of protein with predicted molecular weight of GPC3 [3]: precipitated
binding activity to GPC3 on ELISA [8]: reacted significantly with GPC3
precipitation of protein with predicted molecular weight of GPC3 [14]: precipitated
B1: GES1: chicken anti-GPC3 scFv antibody; heavy chain SEQ ID NO: 30, light chain SEQ ID NO: 38 (antibody, V domains shown)
VH: EVQLLESGGGLVQPGGSLRLSCAASGFTFSSFNMFWVRQAPGKGLEWVSWISSTGSRTKYADSVKGRFTISRDNSKNTLYLQMNSLRAEDTATYYCAKSASRGAGRIDAWGRGTLVTVSS
VL: ALTQPPSASGSPGQSITISCTGTGGSYGWYQQHAGKAPKLVIYNNNKRPSGVPDRFSGSKSGNTASLTVSGLQTDDEAVYYCGSRDSSYFGIFGGGTKLTVL
modifications: scFv linker
binding signal to cell surface (immunofluorescence) [4]: various but significant binding signal
binding signal to hepatoma cells (flow cytometry) [5]: various but significant binding signal
inhibition of cell proliferation, concentration dependence ([6]; 0, 0.5, 1, 2, 4 and 8 μM for 3 days): inhibited the cell proliferation in a dosage-dependent manner
suppression on cell proliferation ([6]; HepG2 cells, 0.1 μM, day 6): approximately 60%
Ki-67 expression in tumor sections [7]: reduced level of Ki-67 expression
fragment of GPC3 identified on western blot [9]: can identify C-terminus fragment of GPC3 and GPC3 in cellular lysates
inhibitory effect on colony formation [10]: not as obvious
inhibitory effect on colony formation [11]: significant inhibitory effort on colony formation
effect on cell migration [12]: partial inhibitory effect
cell cycle arrest ([13]; 0.5 μM, 48 hrs): arrested in G1 phase
cell population in subG1 stage ([13]; treated 48 hrs): 28.8%

Source: patent publication US20190016818A1, “ANTIBODIES AGAINST GLYPICAN-3 AND THEIR USES IN CANCER DIAGNOSIS AND TREATMENT” (LA JOLLA BIOLOGICS, INC., priority 2015, published 2019)
